This is an account of results in US20240165253A1 (REMEGEN, published 2024).

One assay deals with T1, c-Met protein (UniProt P08581 25-932, limits assumed).
T1 construct: The construct is not described; also called c-Met antigen
Kind of assay: ELISA, plate coated with c-Met protein at 2 ug/ml, HRP detection antibody. As for the experimental part:
The c-Met protein was prepared with a diluent to a final concentration of 2 μg/ml, and added to a microplate at 100 μl per well, overnight at 4° C. The solution in the well was discarded, and the plate was washed three times with PBST. The plate was added with a blocking solution at 300 μl/well and incubated at 37° C. for 2 h. The solution in the well was discarded, and the plate was washed three times with PBST. […] The solution in the well was discarded, and the plate was washed three times with PBST. HRP detection antibody was prepared by adding diluent at a dilution of 1:5000, added at 100 μl per well, and incubated at 37° C. for 1 h. The solution in the well was discarded, and the plate was washed three times with PB ST. The plate was added with TMB color developing solution, incubated at room temperature for 2 min, and then added with Elisa stop solution.

A further assay deals with T2, soluble ED protein (UniProt P08581 25-932, limits assumed).
T2 construct: domain: ED; It is read here as the c-Met extracellular domain because the antibodies are anti-c-Met
Kind of assay: ELISA, plate coated with soluble ED protein, HRP anti-human IgG Fc detection. How it is done: The affinities of chimeric cAAJ8D6 and the humanized antibody AAJ8D6 were determined by ELISA. A 96-well plate was coated with soluble ED protein and then incubated with diluted antibodies. ED-related antibodies were detected with an HRP-conjugated goat F(ab′)2 anti-human IgG Fc-specific secondary antibody.

T1 sequence (P08581 25-932 limits assumed): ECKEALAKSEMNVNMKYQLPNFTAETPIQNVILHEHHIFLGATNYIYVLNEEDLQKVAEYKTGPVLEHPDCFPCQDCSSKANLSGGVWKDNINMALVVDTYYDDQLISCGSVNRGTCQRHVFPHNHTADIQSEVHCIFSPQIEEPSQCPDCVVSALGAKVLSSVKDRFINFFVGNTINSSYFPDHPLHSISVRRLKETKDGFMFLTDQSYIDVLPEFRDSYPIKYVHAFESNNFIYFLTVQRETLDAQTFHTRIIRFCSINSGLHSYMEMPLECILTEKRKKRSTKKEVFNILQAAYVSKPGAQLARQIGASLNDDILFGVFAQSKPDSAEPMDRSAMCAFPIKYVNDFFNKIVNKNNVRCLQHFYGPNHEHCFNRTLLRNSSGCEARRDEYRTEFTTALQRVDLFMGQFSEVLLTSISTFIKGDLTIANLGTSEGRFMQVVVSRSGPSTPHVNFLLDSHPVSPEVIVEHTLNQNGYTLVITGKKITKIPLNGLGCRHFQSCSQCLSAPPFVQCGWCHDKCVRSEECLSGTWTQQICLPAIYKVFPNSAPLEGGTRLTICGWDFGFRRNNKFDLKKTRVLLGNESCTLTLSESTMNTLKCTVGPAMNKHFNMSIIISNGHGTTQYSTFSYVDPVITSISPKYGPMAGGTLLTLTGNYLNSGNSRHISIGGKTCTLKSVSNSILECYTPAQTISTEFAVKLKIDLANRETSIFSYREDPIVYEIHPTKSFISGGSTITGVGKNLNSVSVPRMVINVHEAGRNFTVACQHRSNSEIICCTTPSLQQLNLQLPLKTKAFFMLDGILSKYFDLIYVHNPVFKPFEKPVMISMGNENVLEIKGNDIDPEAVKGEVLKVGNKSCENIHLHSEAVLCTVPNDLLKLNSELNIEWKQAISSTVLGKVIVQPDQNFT
T2 sequence (P08581 25-932 limits assumed): as above

B1: ABT-700 (telisotuzumab) (antibody, V domains shown)
VH: QVQLVQSGAEVKKPGASVKVSCKASGYIFTAYTMHWVRQAPGQGLEWMGWIKPNNGLANYAQKFQGRVTMTRDTSISTAYMELSRLRSDDTAVYYCARSEITTEFDYWGQGTLVTVSS
VL: DIVMTQSPDSLAVSLGERATINCKSSESVDSYANSFLHWYQQKPGQPPKLLIYRASTRESGVPDRFSGSGSGTDFTLTISSLQAEDVAVYYCQQSKEDPLTFGGGTKVEIKR
B1: the response in the assay with c-Met protein was half-maximal at 1.33 ng/mL (EC50).

B2: anti-c-Met humanized antibody AAJ8D6 (antibody, human IgG1, kappa, V domains shown)
VH: QVQLEQSGPEVVKPGASVKVSCKASGYSFTSYWMHWVRQAPGQGLEWMGMIDPSDSESRLNQKFKDRVTMTVDTPTSTVYMELSSPRSEDTAVYYCARSGYHGTSYWYFDVWGQGTLVTVSS
VL: DIVMTQSPLSLPVTPGEPASISCRSSKSLLHSDGITYLYWYLQKPGQSPQLLIYQMSNLASGVPDRFSGSGSGTDFTLKISRVEAEDVGVYYCAQNLELPPTFGGGTKVEIKR
notes: also called AAJ8D6 antibody
As to B2, the EC50 worked out at 0.54 ng/mL in the assay with c-Met protein and 3.53 ng/mL with soluble ED protein.
